# Assay results published in patent US20160279215A1, “NOVEL PEPTIDES AND COMBINATION OF PEPTIDES FOR USE IN IMMUNOTHERAPY AGAINST VARIOUS TUMORS” (immatics biotechnologies GmbH, priority 2015, published 2016).
# Target: T1, HLA-A*02:01 (Homo sapiens, UniProt P04439, D140Y/D185E/D98H/E176V/E277Q/G131W/G231S/I119V/I121R/I166T/I218V/L300P/L318F/N151K/N90K/P208A/P217A/Q86G/Q94H/R138H/R169H/T345S)
# T1 construct: made in house
# Assay: MHC binding assay: UV-ligand exchange with β2m ELISA (peptide exchange yield)
# Conditions: binding to HLA-A*02:01 evaluated by peptide exchange yield (UV-ligand exchange, β2m ELISA)
# Summary of the method: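 Binding capacity is expressed as the yield of UV-mediated ligand exchange, reflecting how well each peptide stabilizes peptide-receptive MHC. Stabilized complexes are read out by anti-β2m HRP ELISA (450 nm) after streptavidin capture, with refolded MLA-001 monomer standards for quantitation.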
row,Peptide exchange,Molecule
1,++ (≧20% = ++),272 (FVMEGEPPKL; listed as Homo sapiens) [compound 272]
2,++ (≧20% = ++),273 (SLNKQIETV; listed as Homo sapiens) [compound 273]
3,+++ (≧50 = +++),274 (TLYNPERTITV; listed as Homo sapiens) [compound 274]
4,+++ (≧50 = +++),276 (RMPTVLQCV; listed as Homo sapiens) [compound 276]
5,+++ (≧50 = +++),277 (KLQEELNKV; listed as Homo sapiens) [compound 277]
6,+++ (≧50 = +++),278 (VLEDKVLSV; listed as Homo sapiens) [compound 278]
7,++ (≧20% = ++),279 (VLMDEGAVLTL; listed as Homo sapiens) [compound 279]
8,+++ (≧50 = +++),280 (HLWGHALFL; listed as Homo sapiens) [compound 280]
9,++ (≧20% = ++),281 (LLLESDPKVYSL; listed as Homo sapiens) [compound 281]
10,++ (≧20% = ++),282 (SLYALHVKA; listed as Homo sapiens) [compound 282]
11,+++ (≧50 = +++),283 (ALSELLQQV; listed as Homo sapiens) [compound 283]
12,++ (≧20% = ++),284 (KLMDPGSLPPL; listed as Homo sapiens) [compound 284]
13,+++ (≧50 = +++),285 (MLLDTVQKV; listed as Homo sapiens) [compound 285]
14,+++ (≧50 = +++),286 (FLTEMVHFI; listed as Homo sapiens) [compound 286]

# Target: T2, HLA-A*02:01 (human)
# T2 construct: MHC monomers captured on streptavidin plates; the UV-sensitive peptide is cleaved and exchanged with the test peptide; also called peptide-receptive MHC molecules; MHC class I
# Assay: UV ligand-exchange ELISA (anti-b2m); +++ = exchange yield >=50
# Conditions: not given
# From the text: Candidate peptides for T cell based therapies according to the present invention were further tested for their MHC binding capacity (affinity). The individual peptide-MHC complexes were produced by UV-ligand exchange, where a UV-sensitive peptide is cleaved upon UV-irradiation, and exchanged with the peptide of interest as analyzed. Only peptide candidates that can effectively bind and stabilize the peptide-receptive MHC molecules prevent dissociation of the MHC complexes. To determine the yield of the exchange reaction, an ELISA was performed based on the detection of the light chain (β2m) of stabilized MHC complexes. The assay was performed as generally described in Rodenko et al. (Rodenko et al., 2006).
# 96 well MAXISorp plates (NUNC) were coated over night with 2 ug/ml streptavidin in PBS at room temperature, washed 4× and blocked for 1 h at 37° C. in 2% BSA containing blocking buffer. Refolded HLA-A*02:01/MLA-001 monomers served as standards, covering the range of 15-500 ng/ml. Peptide-MHC monomers of the UV-exchange reaction were diluted 100 fold in blocking buffer. Samples were incubated for 1 h at 37° C., washed four times, incubated with 2 ug/ml HRP conjugated anti-β2m for 1 h at 37° C., washed again and detected with TMB solution that is stopped with […]. Absorption was measured at 450 nm. Candidate peptides that show a high exchange yield (preferably higher than 50%, most preferred higher than 75%) are generally preferred for a generation and production of antibodies or fragments thereof, and/or T cell receptors or fragments thereof, as they show sufficient avidity to the MHC molecules and prevent dissociation of the MHC complexes.
row,peptide exchange yield [%],Molecule
1,50 to 75,TLGEIIKGV
2,50 to 75,VIIQNLPAL
3,50 to 75,LLWDAPAKC
4,50 to 75,YLDPLWHQL
5,50 to 75,AQLEGKLVSI
6,50 to 75,SLLDYEVSI
7,50 to 75,GLLGNLLTSL
8,50 to 75,RLLDPKTIFL
9,50 to 75,FLISQTPLL
10,50 to 75,MLWESIMRV
11,50 to 75,LLWAPTAQA
12,50 to 75,YTFSGDVQL (also called MMP1-003)
13,50 to 75,ALFHMNILL
14,50 to 75,QLGPVPVTI
15,50 to 75,GLAGDNIYL
16,50 to 75,VIFEGEPMYL (also called HORMAD1-001)
17,50 to 75,YLILSSHQL
18,50 to 75,FLDSQITTV
19,50 to 75,SIIDTELKV
20,50 to 75,LLGDSSFFL
21,50 to 75,ALLNNVIEV
22,50 to 75,RLYEEEIRI
23,50 to 75,IMPTFDLTKV
24,50 to 75,RLIDIYKNV
25,50 to 75,ALADLSVAV

row,peptide exchange yield [%],Molecule
1,50 to 75,SLYPHFTLL
2,50 to 75,SLSTELFKV
3,50 to 75,YLMDDFSSL (also called COL6A3-015)
4,50 to 75,SLADLSLLL
5,50 to 75,ILAQDVAQL
6,50 to 75,ALSYILPYL
7,50 to 75,KLVELEHTL (also called CT83-001)
8,50 to 75,QLYGSAITL
9,50 to 75,VLLDMVHSL
10,50 to 75,ALINVLNAL
11,50 to 75,TLQEWLTEV
12,50 to 75,AAIEIFEKV
13,50 to 75,SEWGSPHAAVP
14,50 to 75,MLIIRVPSV
15,50 to 75,RLHDENILL
16,50 to 75,IILENIQSL
17,50 to 75,KLFETVEEL
18,50 to 75,AALEVLAEV
19,50 to 75,ALEEKLENV
20,50 to 75,QLREAFEQL
21,50 to 75,LLTTVLINA
22,50 to 75,GLLSALENV
23,50 to 75,GLQDGFQITV
24,50 to 75,SLLDLVQSL
25,50 to 75,LVVDEGSLVSV (also called …)
